Test results: patent US20170174769A1
One block for each binder: values may come before it.

Key:
[1] = biological target: mouse KLB and mouse FGFR1c co-expressed on HEK293/mKLB/mFGFR1c/SRE-Luc cells (mouse); assay: FACS on stable HEK293 cells, 965 nM
[2] = biological target: mouse KLB and mouse FGFR1c co-expressed on HEK293/mKLB/mFGFR1c/SRE-Luc cells (mouse); assay: FACS on stable HEK293 cells, 33 nM
[3] = biological target: extracellular domain of human KLB expressed with C-terminal HA and hexahistidine tags (human) (UniProt Q86Z14); assay: SPR, mAb captured, 37 C
[4] = biological target: extracellular domain of human FGFR1c expressed with C-terminal V5 and hexahistidine tags (human) (UniProt P11362); assay: SPR, mAb captured, 37 C
[5] = biological target: extracellular domain of human KLB expressed with C-terminal HA and hexahistidine tags (human) (UniProt Q86Z14); assay: SPR, mAb captured, 25 C
[6] = biological target: extracellular domain of human FGFR1c expressed with C-terminal V5 and hexahistidine tags (human) (UniProt P11362); assay: SPR, mAb captured, 25 C
[7] = biological target: full-length human KLB on HEK293/hKLB/SRE-luc cells (human) (UniProt Q86Z14); assay: FACS on stable HEK293 cells
[8] = biological target: full-length human FGFR1c on HEK293/hFGFR1c/SRE-luc cells (human) (UniProt P11362); assay: FACS on stable HEK293 cells
[9] = biological target: human KLB and human FGFR1c co-expressed on HEK293/hKLB/hFGFR1c/SRE-luc cells (human) (UniProt Q86Z14); assay: FACS on stable HEK293 cells
Sequence of human KLB and human FGFR1c co-expressed on HEK293/hKLB/hFGFR1c/SRE-luc cells (human) (Q86Z14 whole entry, chain 1 of 2): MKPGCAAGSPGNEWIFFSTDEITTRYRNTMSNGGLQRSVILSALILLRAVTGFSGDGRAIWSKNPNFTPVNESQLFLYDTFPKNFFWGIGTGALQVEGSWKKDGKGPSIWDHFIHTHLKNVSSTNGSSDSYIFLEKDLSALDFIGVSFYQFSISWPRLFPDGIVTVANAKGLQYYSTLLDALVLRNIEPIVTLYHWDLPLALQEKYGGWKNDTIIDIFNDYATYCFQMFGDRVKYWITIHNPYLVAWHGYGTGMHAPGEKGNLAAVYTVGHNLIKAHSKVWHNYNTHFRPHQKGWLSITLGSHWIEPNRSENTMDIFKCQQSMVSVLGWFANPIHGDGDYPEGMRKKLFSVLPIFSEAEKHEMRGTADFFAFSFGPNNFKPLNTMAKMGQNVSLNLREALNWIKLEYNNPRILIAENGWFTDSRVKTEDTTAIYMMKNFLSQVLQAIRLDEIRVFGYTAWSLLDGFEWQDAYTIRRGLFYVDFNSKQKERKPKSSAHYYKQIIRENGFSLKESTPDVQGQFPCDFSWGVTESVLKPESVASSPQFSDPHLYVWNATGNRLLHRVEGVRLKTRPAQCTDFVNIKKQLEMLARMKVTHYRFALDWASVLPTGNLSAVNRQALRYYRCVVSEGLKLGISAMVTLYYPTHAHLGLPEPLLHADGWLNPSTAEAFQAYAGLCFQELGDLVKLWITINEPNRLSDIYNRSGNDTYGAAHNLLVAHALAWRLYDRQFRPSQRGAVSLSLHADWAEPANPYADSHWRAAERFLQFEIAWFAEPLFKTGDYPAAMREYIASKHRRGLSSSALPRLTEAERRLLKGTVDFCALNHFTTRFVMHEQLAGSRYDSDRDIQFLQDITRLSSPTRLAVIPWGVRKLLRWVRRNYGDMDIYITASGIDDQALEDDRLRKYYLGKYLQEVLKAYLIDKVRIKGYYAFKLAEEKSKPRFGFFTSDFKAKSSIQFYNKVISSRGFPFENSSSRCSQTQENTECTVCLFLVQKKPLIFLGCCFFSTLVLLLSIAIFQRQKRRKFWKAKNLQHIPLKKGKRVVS
Sequence of human KLB and human FGFR1c co-expressed on HEK293/hKLB/hFGFR1c/SRE-luc cells (human) (chain, as listed by the source limits assumed, chain 2 of 2): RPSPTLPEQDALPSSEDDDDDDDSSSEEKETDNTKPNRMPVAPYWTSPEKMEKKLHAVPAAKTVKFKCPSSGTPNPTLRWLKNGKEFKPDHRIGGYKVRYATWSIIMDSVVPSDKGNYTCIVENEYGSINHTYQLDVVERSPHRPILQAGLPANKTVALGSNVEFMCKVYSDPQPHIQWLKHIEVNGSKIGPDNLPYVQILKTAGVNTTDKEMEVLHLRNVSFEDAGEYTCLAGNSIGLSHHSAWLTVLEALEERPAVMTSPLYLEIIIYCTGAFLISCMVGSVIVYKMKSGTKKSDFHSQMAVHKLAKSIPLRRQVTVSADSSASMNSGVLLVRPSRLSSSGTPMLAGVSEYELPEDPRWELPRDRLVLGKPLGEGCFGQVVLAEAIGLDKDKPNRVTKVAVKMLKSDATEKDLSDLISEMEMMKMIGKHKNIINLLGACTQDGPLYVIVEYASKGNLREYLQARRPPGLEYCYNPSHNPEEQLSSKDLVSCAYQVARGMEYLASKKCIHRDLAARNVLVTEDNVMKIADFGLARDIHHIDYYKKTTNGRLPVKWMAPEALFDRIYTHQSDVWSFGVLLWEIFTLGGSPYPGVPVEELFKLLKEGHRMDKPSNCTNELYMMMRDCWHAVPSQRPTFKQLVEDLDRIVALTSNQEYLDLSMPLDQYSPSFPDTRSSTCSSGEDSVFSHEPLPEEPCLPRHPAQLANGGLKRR

Sequence of extracellular domain of human FGFR1c expressed with C-terminal V5 and hexahistidine tags (human) (P11362 other isoform, or with tags, fused parts or gaps limits assumed): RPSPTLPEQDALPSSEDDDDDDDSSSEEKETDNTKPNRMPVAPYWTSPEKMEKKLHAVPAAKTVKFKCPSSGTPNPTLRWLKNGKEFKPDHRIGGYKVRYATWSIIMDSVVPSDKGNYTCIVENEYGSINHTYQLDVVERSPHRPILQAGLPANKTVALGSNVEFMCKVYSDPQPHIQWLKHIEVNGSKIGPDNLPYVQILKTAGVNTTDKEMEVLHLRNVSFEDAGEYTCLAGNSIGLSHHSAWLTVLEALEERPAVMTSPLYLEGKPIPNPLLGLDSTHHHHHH
Sequence of extracellular domain of human KLB expressed with C-terminal HA and hexahistidine tags (human) (Q86Z14 1-996 limits assumed): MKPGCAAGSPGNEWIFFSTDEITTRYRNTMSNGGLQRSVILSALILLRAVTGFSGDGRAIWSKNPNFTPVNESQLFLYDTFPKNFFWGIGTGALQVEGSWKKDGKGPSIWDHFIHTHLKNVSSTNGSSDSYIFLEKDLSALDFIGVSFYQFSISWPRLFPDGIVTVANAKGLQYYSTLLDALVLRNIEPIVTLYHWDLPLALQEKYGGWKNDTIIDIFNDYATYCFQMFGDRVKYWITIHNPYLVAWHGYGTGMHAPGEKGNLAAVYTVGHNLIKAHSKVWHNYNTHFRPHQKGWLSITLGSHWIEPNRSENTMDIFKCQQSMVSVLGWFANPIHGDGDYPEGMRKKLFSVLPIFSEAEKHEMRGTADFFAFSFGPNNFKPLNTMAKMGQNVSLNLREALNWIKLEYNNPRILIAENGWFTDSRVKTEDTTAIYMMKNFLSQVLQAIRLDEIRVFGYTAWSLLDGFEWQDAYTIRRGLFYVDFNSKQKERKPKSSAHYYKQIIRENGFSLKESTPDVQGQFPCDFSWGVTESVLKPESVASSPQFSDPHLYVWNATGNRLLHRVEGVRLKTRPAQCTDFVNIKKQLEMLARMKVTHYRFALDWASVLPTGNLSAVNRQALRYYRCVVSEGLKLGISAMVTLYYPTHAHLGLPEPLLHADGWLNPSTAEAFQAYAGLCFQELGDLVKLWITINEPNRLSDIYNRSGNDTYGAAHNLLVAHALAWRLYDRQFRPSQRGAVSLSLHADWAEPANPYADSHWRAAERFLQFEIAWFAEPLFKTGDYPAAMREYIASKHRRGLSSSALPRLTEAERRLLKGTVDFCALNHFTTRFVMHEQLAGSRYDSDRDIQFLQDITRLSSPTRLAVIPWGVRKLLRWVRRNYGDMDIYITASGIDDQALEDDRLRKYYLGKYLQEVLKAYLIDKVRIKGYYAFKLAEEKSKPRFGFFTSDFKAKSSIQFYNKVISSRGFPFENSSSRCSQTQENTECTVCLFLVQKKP
Sequence of full-length human KLB on HEK293/hKLB/SRE-luc cells (human) (Q86Z14 whole entry): as the sequence (Q86Z14 whole entry, chain 1 of 2) above
Sequence of full-length human FGFR1c on HEK293/hFGFR1c/SRE-luc cells (human) (P11362 other isoform, or with tags, fused parts or gaps limits assumed): as the sequence (chain, as listed by the source limits assumed, chain 2 of 2) above

MFI Ratio to unstained cells [1]: 2 fold | MFI Ratio to unstained cells [2]: 1 fold
B1: H1H8900P (antibody, V domains shown)
VH: QVQLVESGGGVVQPGRSLRLSCVASGFTFSSYGMHWVRQAPGKGLEWVAVISFDGSNKYYADSVKGRFTISRDNSKNTLYLQMNSLRPADTAVYYCAKDRSNYYYFGMDVWGQGTTVTVSS
VL: DIVMTQTPLSLPVTPGEPASISCRSSQSLLDSDDGNTYLDWYLQKPGQSPQLLIYTLSYRASGVPDRFSGSGSGTDFTLKISRVEAEDVGVYYCMQRIEFPLTFGGGTKVEIK

20 nM hKLB-HA-6His Bind (RU) [3]: -1 RU | 180 nM hFGFR1c-V5-6His Bind (RU) [4]: 88.8 RU | Kd [4]: 8.76 nM | koff [4]: 0.0208 s⁻¹ | kon [4]: 2.37e+06 M⁻¹ s⁻¹ | t1/2 [4]: 36 s | 20 nM hKLB-HA-6His Bind (RU) [5]: -1.1 RU | 180 nM hFGFR1c-V5-6His Bind (RU) [6]: 16.4 RU | Kd [6]: 4.12 nM | koff [6]: 0.0129 s⁻¹ | kon [6]: 3.13e+06 M⁻¹ s⁻¹ | t1/2 [6]: 54 s | binding ratio to unstained cells [7]: 2 fold | binding ratio to unstained cells [8]: 27 fold | binding ratio to unstained cells [9]: 33 fold
B2: Comparator 3 (antibody, from another filing, V domains shown)
VH: EVQLVQSGAEVKKPGASVKVSCKVSGYTFTDYYMHWVQQAPGKGLEWMGLVDPEDGETIYAEKFQGRVTITADTSTDTAYMELSSLRSEDTAVYYCARDDYMDVWGKGTLVTVSS
VL: ETTLTQSPDTLSLSPGEGATLSCRASQSVSGSALAWYQQKPGQAPRLLIYDASSRATGVPDRFSGSGSGADFSLTISRLEPEDFAVYSCQQYGSSPLTFGPGTKVDVKR
